{"source": "the DeepSol protein solubility set", "data": [{"test": "soluble on expression in E. coli; label from the status in PepcDB or PDB records", "values": [{"sequence": "MVEVVGVRFREAGHIYYFAPGKSEYIYNEKVLVESQQSKQLATVAIPKKTVDSDDLPEDLKPILNKATANDLEKEQKNLADAEAAKSIANEKIRAHDLKMKLVRVEYTFDRSKMIFYFTADGRIDFRELVKDLAAIFRTRIELRQIGVRDEAKILGGIGPCGRQLCCSTFLGDFMPVSIKMAKDQGLSLNPVKISGLCGRLMCCLKYENDEYEAAKKELPDYGKEVITPDGKGKVVGLNLLSRIVKVRLHGREIAADYDYEEIKEATAKVAAEKGDQNGLEHHHHHH", "soluble on expression in E. coli": "soluble"}, {"sequence": "MVGAYSYSEGLETLVENGTITSQSTLQQWLEAELSYGAIRLEAAVMVRAYQAATMDDMETLCYWNLWLSAARETQELRNSSWQMGRSLMQLLGKIQPEILPLANAVGNPCNYAIAFGIASAHWQINIQAALLAYLHSWATNLITAGVKLIPLGQTAGQELLLQLQPLISHATVEIMSLKDDELSCCSWGLSLASMQHETQYTRLFRSLEHHHHHH", "soluble on expression in E. coli": "not soluble"}, {"sequence": "MVGGDGATRREQSLCDSCYFAAFDLVDAPDTIEVMVCARCGAVHRGNRWVDIGADDYVDVAVAETTEALGVHLEAEDVDWEVRPEKLDDNTVRMHATFTGVVRDTHRTEQVAVTVKVSRQTCQRCGRIAGESYASTVQVRAVGRDPTSEETDRAAELAHRIVADMEATGDREAFVTEIGDAESGTDIKLSTTKIGLKLARKLVEEFGGDFEDHETLITEDDDGNEVYRVTYAVRLPEFVPGDVVDIAADDGGPVLVQSNHGNLKGVRVTTGEPYEASFEDGDSPDARKLGAVADATEATVVTVEDDAAIQILDPDTYEAQTVARPDYVDPDASTVPALKSRAGLHVLPDALEHHHHHH", "soluble on expression in E. coli": "not soluble"}, {"sequence": "MVHYKLSYFPIRFAGEIPRQILAYAGQKFEDHRIPQADWPALKSTMPFGTLPVLYQDGKPLGQSHAISRFLARQFGINGRCPWEEAQVNAIADQFKDYLNDIRSYNLVKMGFAQGDADALYKDTFLPNFKKNYQFFTNFLKASGSGFLIGDSVTWVDLLIAQHTSDLLSDSGSVFAASQSLLDEFPELKAHQKKIHSIPNIKKWVETRPVTPF", "soluble on expression in E. coli": "not soluble"}, {"sequence": "MVIERSCMGDLDKNPAVKAMVVFRKAMRTIDAQVAPSYKNNGLTQTQFAVLDVLYAKGEMTISRLIASILATSGNMTVVIKNMERNGWIYRSPNPDDRRASVVGLTEVGKQLIQKALPDHIAMVEAAFSVMTEEEQLVLIDLLKKFKSL", "soluble on expression in E. coli": "not soluble"}, {"sequence": "MVIHCKMFNNQRKTLAKEYHELYMNNNTETRKNKHLNERERYAIELYLKEKYTVTEIAKRLGRHRRTIEREITRGTIYLQNSDLTYRKEYCADVAQRRYVENGKNKGPRLKIGNDHELVRYIESKIINEKYSPDAVIGQIKAKGLKFKTSICTKTLYNYIDRGDVFLRLTNKYLPVKKDGKKRIYQRVKKIALKNLKGSSIEERPKEVNDRKEYGHWEMDCVVGRKNSAAVLLVLSERKTREEIILKLPDKTQESVIKAIDELERKYRRKFREKFKTITVDNGTEFLDYRGIEKSKTEPGKDRTKVYYAHPYSSWERGTNENINKLIRRFIPKGTDISKVSKAKIKSIERWINEYPRRMFGYRSAIEMAV", "soluble on expression in E. coli": "not soluble"}, {"sequence": "MVIINTAAYHFVSITQPQTLADQIRAHGEIAGLKGTVLIANEGINLFLAGEKEAINAFYAWLCADVRFAALHVKYSVSAYKPFARFKVKVRPEIISFRRGDISPLQVRAPGVSAHTLRDWLRRGCDDNGRRLVMLDARNQQEIAYGTFSGAMTLPITKFTGFPGALAHYRDLLSDATVVSFCTGGIRCEKAVLWMRADGMDNVLQLEGGILGYFEQVGGEGYDGRCFVFDKRVALDPQLRPLYDMRVVASFARSEISLEHHHHHH", "soluble on expression in E. coli": "not soluble"}, {"sequence": "MVILMRAPIVEVFSSIQGEGLLVGRRQIFVRFAGCNLNCSYCDTPESRDPSAGRLFTAPELTEIIEGLITPDFHSISITGGEPLLYPDFITELLEESPHRTLLETNGSLPSNAERIAHLFDYASVDIKIAEHFSDNLRSGTTESDISSPGDLIDREIQVINILISRGVNTYCKVVVMPTTGAGYIGALAERLLECVDEPERLPLVIQPCSPPEQWAQNTPRLLEMSQEAGKYMDVYVIPQMHRALGLR", "soluble on expression in E. coli": "soluble"}, {"sequence": "MVIMVNTEYIPGKRIVKVFGTIWGITVRSRGLGGNLVAGLRSLAGGEIKEYTKMLSDARNTAMERLQSAAEQIGANAVINVRFDSSDIGQVMTEIVAYGTAVLVE", "soluble on expression in E. coli": "soluble"}, {"sequence": "MVISLGDDITTVLKTVQQTLFALRDEHEAATRILEANLINSDSSEPSLPSEKMGLIDESLGKVMDGGDEASLLIMMDKLMQSYDVQLSKNHESIRLLRQENTWLLDELTTTQRKLQESERTVAHLEEERDHYKFQDSMNYLNSDFQHTTSVDATPMMVDTLQELGFGPEEEDQNNNQADQGCRSSSFSNPISNDYQLPTRLQTLQNLVIQYMEQGRFEVAIPLCKQALEDVVKVHGNVHLDVATMLNVLAIVYRNQENFKDAAIYLEKALSIRVQCCGENHHSVAATLNNLAIAYGKRGKYKESEPLCKRALEIRKNLLGPNHPDVAKQLTNLGIVTQQLEKYEETENYFKQALSIYNRAFPENHQNVIKTKNQLASVFLKQGKYQEAEEMYKNILSKVAITGNKPIWRIAEDREERQRNGIPKVDDESFNVNPTTVMDSNVMSTIKNLAAVYRKQGKEEAAGTLEEALGAKKQINGGADHTNSTASSVETSSAVAINPAQSGIKKRIMHFVGLNF", "soluble on expression in E. coli": "not soluble"}, {"sequence": "MVKANVQAIDQLDAEQLGSGMVITDRQLSIVAVSEPTPRWLGFAKNELVGRPVGVLFSAEWSAALLDGIAEAVKKDGCWQGEARHVAKSGKAYTSWMNVYRLSGSEGEWLVWHFVEQTAMPPADRPTTSELLGVIYDSAPFAVVPVAADGTVQDWGLSAERLFGRRKEEAVGRPIWSLFRCGSQTWLPFPPKEQRCGEGMVQRRDGTSANVSYTVIPMLQADGYIVLVEDETKQKQKEAERRRQVELAKKIQQNLLTPLIQNEAVTMDAVYIPSDDLSGDIYACYQIDLYRYGVIVIDVMGHGISSALVSMLLRSLLRGLIVRVIDPVSVASELEKHVQTLFPDEANDIRHLFSMIYLVIDTKERKIEYTNAGHPAGLLVFDDGSVHELDKGGLAIGSPFSLPFEKGVIHYDKRARLLLYTDGILEEIDPSILQSIEKIRSCTQMCRHLPDKRFLERLISQGPPLVSPSDDICLLSITVHG", "soluble on expression in E. coli": "not soluble"}, {"sequence": "MVKERRTELVEGFRHSVPYINAHRGKTFVIMLGGEAIEHENFSNIVNDIGLLHSLGIRLVVVYGARPQIDANLAEHHHEPVYHKQTRVTDAKTLELVKQAAGMLQLEITARLSMSLNNTPLQGAHINVVSGNFIIAQPLGVDDGVDYCHSGRIRRIDEEAIHRQLDSGAIVLMGPVAVSVTGESFNLTSEEIATQLAIKLKAEKMIGFCSSQGVYNQAGEIVSELFPNEAQARVEELEADEDYNSGTVRFLRGAVKACRSGVRRCHLISYQENGALLQELFSRDGIGTQIVMESAEQIRRATINDIGGILELISPLEQQGILVRRSREQLEMEIDKFTIIQRDNTTIACAALYPFPEEKIGEMACVAVHPDYRSSSRGEVLLERIAAQARQMGLSKLFVLTTRSIHWFQERGFTPVDIDLLPESKKQMYNYQRRSKVLMADLA", "soluble on expression in E. coli": "not soluble"}, {"sequence": "MVKIAIITYSTYGHIDVLAQAVKKGVEAAGGKADIYRVEETLPDEVLTKMNAPQKPEDIPVATEKTLLEYDAFLFGVPTRFGNLPAQWSAFWDKTGGLWAKGSLNGKAAGIFVSTSSYGGGQESTVKACLSYLAHHGIIFLPLGYKNSFAELASIEEVHGGSPWGAGTLAGPDGSRTASPLELRIAEIQGKTFYETAKKLFPAKEAKPSTEKKTTTSDAAKRQTKPAAATTAEKKEDKGLLSCCTVM", "soluble on expression in E. coli": "soluble"}, {"sequence": "MVKPKYSRVLIKLSGEALAGEKGVGIDIPTVQTIAQEIKEVHDSGIEIALVIGGGNLWRGEPASKAGMDRVQADYTGMLGTVMNALVMADALQHAGVDTRVQTAIAMQQVAEPYIRGRALRHLQKGRIVIFAAGVGSPYFSTDTTSALRAAEIEADAILMAKNGVDGVYNDDPRKNADAIKFNELTHMEVLKRGLKIMDSTASSLSMDNDIDLVVFNLNESGNIKRVIFGEQIGTTVTSRISDSEMAGDPLEHHHHHH", "soluble on expression in E. coli": "soluble"}, {"sequence": "MVKRRNLLHFNNGARSERDLGDLVTKVFEKAAKKEPQPLYTFSLPLLSVQDEIRVYCKKKNIKIGYDTLFMEITFSADREAVDELIKHFFTENKLYLRGRFYLSAAVV", "soluble on expression in E. coli": "not soluble"}, {"sequence": "MVKTMKWARIGDIIVLNREADDPEALLEMEGVRSVIRVEGIHGPLRRPRVRVLAGSGTETVHKENGCLFRIDLSRVMWSRGNINERARIPSLVEEGETVVDMFAGIGYFSIPVAVHSDPGRVYSVELNPDSFELLKSNITLNRVEGIIEPILGDCREVAPELDADRVIMGYVGRTHHFLDAAMECVRDGGVIHYHETAPEAIRFSRPLRRIERAAHPRRVSLLDKRVIKKYSPGVWHVVLDVRIH", "soluble on expression in E. coli": "soluble"}, {"sequence": "MVLAIAGCIEAYRTGHDARHGPRVPWERRLSEEDYLARLAAGSVSYSRDVQPILDSRCVVCHGCYDAPCQLKLESFDGLERGASKTPVYDTTRLQATPPTRLFIDAENVQGWRSKGFFPVLNERGDSPEANLRDSLLFRMLELKKAHPLPVSGALPDTFDFRLDRTLNCPTVEEFDDFEDDHPEWGMPYGFPGLSEREHDIVVKWLREGGFAPPPAPVSAEAASAVAQWEAFLNGSSPKERLFARYVYEHLFLGHLHFRGLAPREFFRLVRSRTPPGEPIREIATTRPYDSPGPGEFYYRLRPVQQSIVAKTHMVYELDDARMRRYRELFLDPEYAVDRLPGYAAADAANPFKTFVAIPPRSRYRFLLDDAHFFFSGFMKGSVCRGQAALNVIQDRFWVAFTHPDADPVSNDAQFLADQAERLRLPAEKENSPGIGDIWYTYRALEEDYQAAKAAWLRAHGERGGTTLADLWDGDGDNRDALLTVFRHFDSASVERGLVGDTPLTGWVVDYPLLERIHYLLVAGFDVFGNVGHQLATRLYMDFMRMEAENNFLRFLPSSIRQAERARWYKGIGARINDLWQSPRWGMGGETLIDYRTGNPKQEFFDRVRAGFGKAAGRPDPFTGCGVEVEGCGEGGEPALPPVQASVERELRRLAFARGGGVAFLPELSYLRIRTGSGGAEDGWIYSLVKNTALENVSMLFLEEIRRTPADDTVTLVRGIVGSYPNFFFDLDAAEVGEFVDAILSVDGSKAFGRRLVERFGVRRSNPAFWRISDWFNRRYLEASPVTAGWLDLSRYDNPLEHHHHHH", "soluble on expression in E. coli": "not soluble"}, {"sequence": "MVLAPFFEKAPSLIIAPDGSVLFECICNANPQPTVKWFLKDKELTGDRYVSKIKKMVGKFTVTLHIKNPTQEDQGVYKVTATNTHGSHSVEQQYIYKCTGKEVFKTLD", "soluble on expression in E. coli": "soluble"}, {"sequence": "MVLFEKPGKENTRKTLEIAIQKASELSSKKLLIASATGYSARMALEMIPEDMKLVVVTHHAGFEEPDTQEFDEELRKLLKEKGHDVLTATHALSAGERSLRRKFGGIYPLEIIANTLRMFSEGVKVGVEITLMAADAGLVKTSELVVACGGTESGLDSAIVVKPANSPNLFDLKITEILCKPLIS", "soluble on expression in E. coli": "soluble"}, {"sequence": "MVLIIVRTLLMRISIKMIPLAYLNHFRKEHMKSRIHWAALGLLAAFAAQAETVTIEHRLGKTTLEQKPQRVVVIGVGALDAIDSFGIEPVAVSKFDGTPDYLAKYKSDKYPSAGSLFEPDFETIYTQKPDLIVIGPRASKSYDELSKIAPTIVFAAEADQGYWESTQQQWRNLGKVFAIEPAVEAKIEQVDAQFKSIMQYNQQHKSDAMLVMSSGGNLTTFGANSRFSSVYKDFGFSETVPVSKESSHGDLISFEYIREHNPKTLLVVDRDKVVTKGETNIRQTFENDLVKATTAYKNGHIAYLDVNAWYIAISGVKATEQMVADMKASVGMQ", "soluble on expression in E. coli": "not soluble"}, {"sequence": "MVLLSVFLATGCTDTEQQPDTTTITEPDTTTTAQSETSKLIVSTTTSLEDTGLLEEIEAAFEDKYPGVDVLVISGGTGIAIQYGERGDADILLTHDKSREEEFVNNGFGTNRTEIAYNYFWIVGPENDPAGINGLNATEAFTRIMEEGQNDSDQVKFASRGDDSGTHAREKKIWESTGVSYGEINSSGEWYIESGRGMGETLLLSNEQNAYTLTDSGTFLAYTNEGRIQIVPIVTAGDELLNVYAAMPVNPEKHPNVNYEGAQNFVDFLVSSEGQEIIGNFGREQYGEPLFTPISEGLPS", "soluble on expression in E. coli": "not soluble"}]}]}
